Where a chain is given by its changes, count along the chain named.
B1: mAb 123 (antibody, V domains shown)
VH: DVQLVESGGGTVKTGGSLRLSCVASGFSFKKAWMNWVRQAPGKGLEWVGRIKKNSDDGTADYAAPVKGRFTISRDDSKRTLFLQMNSLQTEDTAVYYCTTLDSSSWFVGYYYMDVWGKGTTVTVSS
VL: DIQMTQSPSSVSASVGDRVIITCRASQDINNWLAWYQQKPGKAPKLLIYTASSLQSGVPSRFSGSGSVSDFTLTIDSLQPEDFATYYCQQAHSLPITFGQGTRLEIK
notes: VH and VL only
B2: mAb 127 (antibody, V domains shown)
VH: EVQLVESGGGLVKTGGSHRLSCVASGFSFKKAWMNWVRQAPGKGLEWVGRIKRNSDGGTTDYAAPVKGRFILSRDDSKNTLYLQMNSLKTEDTAVYYCTTLDSSSWYVGYYYMDVWGKGTTVTVSS
VL: B1 VL with I20T, L46I, S53N, V68G, S69T, D76S, S77T, Y87F, S93G
notes: VH and VL only
B3: mAb 129 (antibody, V domains shown)
VH: B2 VH with G10D, H18L, S55T, T59A, G68D, I71T
VL: DIHMTQSPSSVSASLGDRVTFTCRASQDINNWLAWYQQKPGKAPRLLIYTASSLQSGVPSRFSGSGSGTDFTLTISSLQPDDFATYYCQQAHSLPITFGQGTRLGIE
notes: VH and VL only
B4: mAb 288 (antibody, V domains shown)
VH: EVQLLESGGNLGQPGGSLRLSCAVSGFTFSSYTMSWVRQAPGKGLEWVSAISGSGGRTYYADSVKGRFTISRDNSKNTLYLQMKSLRAEDTAVYYCAKKFSYYYYYMDVWGKGTTVTVSS
VL: SYELTQPLSVSVALGQTARITCGGNNIGSKDVHWYQQKPGQAPVLVIYRDSNRPSGIPERFSGSNSGNTATLTISSAQAGDEADYYCQVWDSNTAVFGGGTQLTAL
notes: VH/VL only
B5: mAb 190 (antibody, V domains shown)
VH: QVQLVESGGGVVQPGRSLRLSCAASGFTFSGYGMHWVRQAPGKGLEWVAIIYYNGKKEYYADSVKGRFTISRDNSKNTLYLQMNSLRAEDTAVYYCTRGEGYNWFDPWGQGTLVTVSS
VL: EIVMTQSPATLSVSPGERATLSCRASQSVSSNLAWYQQKPGQAPRLLIYGASTRATGIPARFSGSGSGTEFTLTISSLQSEDFAVYYCKQYNNWPLTFGGGTKVEIK
notes: VH/VL only
B6: mAb 200 (antibody, V domains shown)
VH: B5 VH with V5A, Y95F
VL: B5 VL with N92K
notes: VH/VL only
B7: mAb 202 (antibody, V domains shown)
VH: B5 VH with Y95F
VL: B5 VL with N92K
notes: VH/VL only
B8: mAb 207 (antibody, V domains shown)
VH: B5 VH with K76R, Y80F, V93I
VL: B5 VL with Q79L
notes: VH/VL only
B9: mAb 211 (antibody, V domains shown)
VH: B5 VH with K57R
VL: B5 VL with Q90H
notes: VH/VL only
B10: mAb 223 (antibody, V domains shown)
VH: QVQLVESGGGVVQPGRSLRLSCAASGFTFSGYGMHWVRQAPGKGLEWVAIIYYNGNNRKYADSVKGRFTISRDNSKNMVSLQMNSLRVEDTAIYYCTRGDGYNWFVTWGQGTLVTVSS
VL: B5 VL with R18G, Q37H, A60V, E81D, Y87F, K89Q
notes: VH/VL only
B11: mAb 208 (antibody, V domains shown)
VH: B5 VH with V2E, G31S, Y52W, E58K, Y59D, N77S, T97A, E100L
VL: EIVLTQSPDFQSVTPMEKVTIACRASQNIGSSLHWYQQKPDQSPKLLIKYASQSFSGVPSRFSGSGSGTDFTLTINSLEAEDAATYYCHQSSSFPNTFGQGTKLEIK
notes: VH/VL only
B12: mAb 227 (antibody, V domains shown)
VH: B5 VH with V2E, T28I, G31S, Y52W, E58R, Y59D, T97A, E100L
VL: B11 VL with M16K, A22T, N28S, F94L, N96Y
notes: VH/VL only
B13: mAb 231 (antibody, V domains shown)
VH: B5 VH with V2E, G31S, E58K, Y59D, T97V, E100L
VL: B11 VL with M16K, A22T, N28S, S93N, F94L, N96Y
notes: VH/VL only
B14: mAb 232 (antibody, V domains shown)
VH: B5 VH with V2E, G31S, Y52W, K56R, E58K, Y59D, T97A, E100L
VL: B11 VL with N28S, F94L, N96Y
notes: VH/VL only
B15: mAb 234 (antibody, V domains shown)
VH: B5 VH with V2E, T28I, G31S, Y52W, E58R, Y59D, A88V, T97A, E100L, P107S
VL: B11 VL with M16K, A22T, N28S, F94L, N96Y
notes: VH/VL only
B16: mAb 239 (antibody, V domains shown)
VH: B5 VH with V2E, Q3K, A23V, Y32F, N54D, K57N, E58K, T97V, E100P
VL: B11 VL with M16K, A22T, N28S, F94L, N96Y
notes: VH/VL only
B17: mAb 241 (antibody, V domains shown)
VH: B5 VH with V2E, T28I, G31S, Y52W, E58R, Y59D, T97A, E100L
VL: B11 VL with E1A, M16K, A22T, S92G, F94L, N96Y
notes: VH/VL only
B18: mAb 244 (antibody, V domains shown)
VH: QEQLVESGGGVVQPGRSLRLSCAASGFTFRSYGMHWVRQAPGKGLEWVAIIWYDGKNKYYADSVKGRFTISRDNSKNTLYLQMNSLRVEDTAVYYCARGLGYNWFDPWGQGTLVTVTS
VL: B11 VL with M16K, A22T, N28S, S54T, A80V, F94L
notes: VH/VL only
B19: mAb 246 (antibody, V domains shown)
VH: B18 VH with V88A, T117S
VL: B11 VL with M16K, A22T, N28S, A51G, F94L, N96Y
notes: VH/VL only
B20: mAb 247 (antibody, V domains shown)
VH: B18 VH with T28I, R30S, D54N, N57K, K58R, Y59D, V88A, T117S
VL: B11 VL with M16K, E17D, A22T, N28S, S93T, F94L, N96Y
notes: VH/VL only
B21: mAb 249 (antibody, V domains shown)
VH: B18 VH with V88A, T117S
VL: B11 VL with M16K, A22T, N28S, F94L, N96Y
notes: VH/VL only
B22: mAb 265 (antibody, V domains shown)
VH: EVQLLESGGGLVQPGGSLRLSCAASGFTFRSSSMTWVRQAPGKGLEWVSGIRGSGGRTYDAESVKGRFTISRDNSKNTLYLQMNSLRAEDTAEYFCAKLYDYYNDYMDVWGKGTTVTVSS
VL: B4 VL with D31N, S76R, N93S
notes: VH/VL only
B23: mAb 233 (antibody, V domains shown)
VH: QGKLVESGGGVVQPGRSLRLSCVASGFTFSGYGMHWVRQVPNKGLEWVAIIYYDGKNKYYADSVKGRFTISRDNSKNMLYLQMNSLRAEDTAVYYCVRGPGYNWFDPWGQGTLVTVSS
VL: B11 VL with M16K, A22T, Y50L, A51T, F94L, N96Y
notes: VH/VL only
B24: mAb 235 (antibody, V domains shown)
VH: B23 VH with V40A, I70V, M78T, M83L, S85N
VL: B11 VL with M16K, A22T, L47F, Y50H, F94L, N96Y
notes: VH/VL only
B25: mAb 236 (antibody, V domains shown)
VH: B23 VH with G2V, V40A, N42G, V64A, I70V, M78T, M83L, P107S
VL: B11 VL with M16K, A22T, N28S, S32N, A51T, F94L, N96Y
notes: VH/VL only
B26: mAb 242 (antibody, V domains shown)
VH: B23 VH with A88V
VL: B11 VL with M16K, A22T, Y50L, A51T, F94L, N96Y
notes: VH/VL only
B27: mAb 243 (antibody, V domains shown)
VH: B23 VH with V40A, A88V
VL: B11 VL with M16K, A22T, Y50H, A51T, D70A, F94L, N96Y
notes: VH/VL only
B28: mAb 245 (antibody, V domains shown)
VH: B23 VH with G2V, V40A, N42G, A61V, M78T, M83L, P107L, S117A
VL: B11 VL with M16K, A22T, N28S, F94L, N96Y
notes: VH/VL only

What follows are binders tested against T1, human CD3e/g (human, UniProt P07766 23-126; P09693 23-116) (assay: SPR (Carterra LSA), mAb on chip).
T1 construct: Bought soluble protein; also called hCD3e/g; human CD3e/g (Acro CDD-C52W4)
T1 sequence (P07766 23-126, chain 1 of 2): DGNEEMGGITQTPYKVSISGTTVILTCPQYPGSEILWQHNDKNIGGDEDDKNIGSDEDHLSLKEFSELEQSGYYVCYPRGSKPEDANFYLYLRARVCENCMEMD
T1 sequence (P09693 23-116, chain 2 of 2): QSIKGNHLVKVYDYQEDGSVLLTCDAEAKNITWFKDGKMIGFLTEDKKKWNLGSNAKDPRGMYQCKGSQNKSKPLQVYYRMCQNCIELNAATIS
In short: (§1)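 Purified mAbs amine-coupled (EDC/S-NHS) at 10 μg/mL in 10 mM NaOAc pH 4.25 onto an HC-30M chip, with benchmark and negative-control mAbs; analyte flowed over the array. Double-referenced sensorgrams fitted globally to a 1:1 Langmuir model for ka, kd and KD.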
Work on B1 yielded a Kd of 16.6 nM. For B2, the Kd was 15.4 nM. For B3, the Kd was 6.62 nM.

What follows are binders tested against T2, human CD3e/d (human, UniProt P07766 23-126; P04234 22-105) (assay: SPR (Carterra LSA), mAb on chip).
T2 construct: Bought soluble protein; also called hCD3e/d; human CD3/ed (Sino CT038-H2508H)
T2 sequence (P07766 23-126, chain 1 of 2): as the sequence (P07766 23-126, chain 1 of 2) above
T2 sequence (P04234 22-105, chain 2 of 2): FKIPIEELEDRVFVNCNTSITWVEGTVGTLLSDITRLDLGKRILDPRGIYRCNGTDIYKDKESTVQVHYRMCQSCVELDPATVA
In short: as §1
Binder B1 has a Kd of 56.1 nM. Work on B2 yielded a Kd of 65 nM. B3 gave a Kd of 26.4 nM.

Each binder was assayed against T3, cynomolgus monkey CD3 expressed on cyno primary T cells (cynomolgus monkey, UniProt Q95LI5 22-198; Q95LI8 22-171; Q95LI7 23-181) (assay: flow cytometry, cyno primary T cells).
T3 construct: whole, on cells; CD3 complex on purified cynomolgus monkey CD3 pan T cells; also called cyno CD3
T3 sequence (Q95LI5 22-198, chain 1 of 3): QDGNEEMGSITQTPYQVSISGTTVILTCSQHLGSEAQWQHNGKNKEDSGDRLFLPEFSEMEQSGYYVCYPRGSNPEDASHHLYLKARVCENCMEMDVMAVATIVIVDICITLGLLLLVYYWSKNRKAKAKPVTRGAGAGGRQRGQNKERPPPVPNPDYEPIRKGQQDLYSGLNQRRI
T3 sequence (Q95LI8 22-171, chain 2 of 3): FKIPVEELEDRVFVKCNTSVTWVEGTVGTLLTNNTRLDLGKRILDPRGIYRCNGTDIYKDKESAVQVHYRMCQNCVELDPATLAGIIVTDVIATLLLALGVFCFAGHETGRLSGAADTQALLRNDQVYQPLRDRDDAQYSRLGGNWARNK
T3 sequence (Q95LI7 23-181, chain 3 of 3): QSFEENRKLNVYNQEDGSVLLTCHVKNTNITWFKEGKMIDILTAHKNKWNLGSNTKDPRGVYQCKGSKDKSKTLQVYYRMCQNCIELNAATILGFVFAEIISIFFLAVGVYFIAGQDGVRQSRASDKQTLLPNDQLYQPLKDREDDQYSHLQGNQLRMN
Procedure: Purified antibodies were confirmed to bind CD3 expressed on cells using the CytoFLEX S or LX flow cytometers (Beckman Coulter). Antibodies were diluted to 25 nM in FACS buffer (PBS+2% FBS) and were incubated with CD3-expressing cells for 30 minutes at 4° C. […] The median fluorescence intensity of the binding signal for each antibody was normalized to the isotype control to obtain a fold over isotype value. An antibody with a fold over isotype (FOI) of ≥10 was considered to be positive for binding.
B4: no binding (tested: FOI <10 (FOI >=10 = positive); 25 nM). B5: no binding (tested: FOI <10 (FOI >=10 = positive); 25 nM). B6: no binding (tested: FOI <10 (FOI >=10 = positive); 25 nM). B7: no binding (tested: FOI <10 (FOI >=10 = positive); 25 nM). B8: no binding (tested: FOI <10 (FOI >=10 = positive); 25 nM). B9: no binding (tested: FOI <10 (FOI >=10 = positive); 25 nM). B10: no binding (tested: FOI <10 (FOI >=10 = positive); 25 nM). B11: no binding (tested: FOI <10 (FOI >=10 = positive); 25 nM). B12: no binding (tested: FOI <10 (FOI >=10 = positive); 25 nM). B13: no binding (tested: FOI <10 (FOI >=10 = positive); 25 nM). B14: no binding (tested: FOI <10 (FOI >=10 = positive); 25 nM). B15: no binding (tested: FOI <10 (FOI >=10 = positive); 25 nM). B16: no binding (tested: FOI <10 (FOI >=10 = positive); 25 nM). B17: no binding (tested: FOI <10 (FOI >=10 = positive); 25 nM). B18: no binding (tested: FOI <10 (FOI >=10 = positive); 25 nM). B19: no binding (tested: FOI <10 (FOI >=10 = positive); 25 nM). B20: no binding (tested: FOI <10 (FOI >=10 = positive); 25 nM). B21: no binding (tested: FOI <10 (FOI >=10 = positive); 25 nM). B22: no binding (tested: FOI <10 (FOI >=10 = positive); 25 nM). B23: no binding (tested: FOI <10 (FOI >=10 = positive); 25 nM). B24: no binding (tested: FOI <10 (FOI >=10 = positive); 25 nM). B25: no binding (tested: FOI <10 (FOI >=10 = positive); 25 nM). B26: no binding (tested: FOI <10 (FOI >=10 = positive); 25 nM). B27: no binding (tested: FOI <10 (FOI >=10 = positive); 25 nM). B28: no binding (tested: FOI <10 (FOI >=10 = positive); 25 nM).
